Source: US8632772B2, “Methods of treating multiple myeloma using combination therapies based on anti-CS1 antibodies” (Dana-Farber Cancer Institute, priority 2006, dated 2014)

What was measured:
MHC class I = conditions: bortezomib treatment of myeloma cells; cited from earlier work
CS1 = CS1 protein expression on OPM2 cell line (flow cytometry); type: cell-based, human; conditions: OPM2 multiple myeloma cell line
Method: The effect of HuLuc63 and bortezomib treatment on expression of CS1 in MM cell lines and mouse xenograft tumors was examined by flow cytometry and immunohistochemistry respectively.
The combination of HuLuc63 with bortezomib was then tested for anti-myeloma activity in vitro using ADCC assays. […] OPM2 cells were pretreated with vehicle control (square symbols) or bortezomib (10 nM; round symbols) for 18 hrs and were then subjected to HuLuc63 mediated ADCC using human NK cells from healthy donors. HuLuc63 (closed symbols) and isotype control antibody (open symbols) were used at doses ranging from 0.001-10 μg/ml.

OPM2 myeloma cells = assay: 51Cr release ADCC assay, OPM2 cells with NK cells from healthy donors; type: cell-based, human; conditions: bortezomib 10 nM, 18 hrs; NK effector cells from healthy donors
Method: OPM2 myeloma cells were harvested at mid-log phase, suspended at a density of 1.0×10^6 cells/mL in complete media (RPMI with 10% FBS) and treated overnight with or without Velcade (10 nM). Cells were collected, washed, re-suspended at a density of 20×10^6 viable cells/mL, and labeled for one hour with […] Na2[^51Cr]O4 per 10^6 cells. ^51Cr-Labeled cells were washed then added to a 96-well V-bottomed polystyrene plate at a cell density of 15,000 cells per 75 μL RPMI supplemented with 10% heat-inactivated FBS. HuLuc63 and a human IgG1 isotype control antibody MSL-109 were added to target cells for a final antibody concentration ranging from 0.001 to 10 μg/mL. NK cells were enriched from the whole blood of healthy donors using the RosetteSep human NK cell enrichment cocktail (Stem Cell Technologies). The enriched NK cells were added to Velcade treated or untreated OPM2 cells at a ratio of 10:1. After a 4-hour incubation at 37° C., cells were centrifuged and the supernatants measured for released ^51Cr. Maximum release was determined from target cells lysed with […] Digitonin. Antibody independent cellular cytotoxicity (AICC) was determined using target cells, plus media, plus NK cells, while spontaneous lysis was determined using ^51Cr-labelled cells plus media without NK effectors. % Cytotoxicity was calculated as ((sample−AICC)/(Maximum−AICC)*100. […]

OPM2 tumor [1] = assay: OPM2 xenograft mouse model, second experiment (clinic-like bortezomib schedule); type: in vivo, mice; conditions: HuLuc63 1 mg/kg ip twice a week, 10 doses; bortezomib 1 mg/kg ip twice weekly weeks 1, 2, 4, 5
Method: In a second experiment, HuLuc63 was combined with bortezomib in vivo, using a different dose and dosing schedule for bortezomib, while keeping the original HuLuc63 dose and dosing schedule. OPM2 cells were inoculated into the flanks of SCID mice. When tumors reached an average size of about 100 mm3, animals were randomized into 4 groups of 15 mice each and were treated with 1 mg/kg of antibody administered intraperitoneally twice a week for a total of 10 doses. Bortezomib was administered intraperitoneally at a dose of 1 mg/kg twice for weeks 1 and 2, no treatment for week 3, and 1 mg/kg twice for weeks 4 and 5 for a total of 8 doses. The intent for this dosing schedule was to more closely mimic the dosing schedule of bortezomib in the clinic, where each treatment cycle consists of 2 weeks of dosing, with one week off. Tumor growth was monitored for a period of 1-2 months.

patient MM cells = assay: calcein-AM release ADCC assay, autologous patient MM cells with PBMC effector cells; type: cell-based, human
Method: (§1) ADCC was measured by calcein-AM release assay, with sensitivity similar to traditional Cr^51 assay, as described previously. After informed consent, peripheral blood mononuclear cells (PBMCs) including natural killer (NK) effector cells were isolated from leukopheresis products of normal donors or peripheral blood from MM patients. Increasing concentrations (0-10 μg/ml) of either HuLuc63 or human isotype control IgG1 MSL109 mAbs were added at effector:target (E:T) ratios of 20:1, in a final volume of 200 μl per well. In some experiments, PBMC effector cells were pretreated with lenalidomide for 3 days at 0.2 μM before HuLuc63-mediated ADCC assays were performed. After 4 h incubation, 100 μl culture supernatants were transferred to a Black ViewPlate™-96 plate and arbitrary fluorescent units (AFU) were read on a fluorometer (Wallac VICTOR2). This assay is valid only if (AFU mean maximum release−medium control release)/(AFU mean spontaneous release−medium control release)>7. Calculation of % specific lysis from triplicate experiments was done using the following equation: […]
HuLuc63-mediated lysis of patient MM cells by effector cells from the same patient was measured using an ADCC assay.
HuLuc63-mediated lysis of patient myeloma cells by PBMC effector cells from the same patient was measured using an ADCC assay. CD138-purified tumor cells from a patient with MM were incubated with autologous effector cells in the presence of serial dilutions of HuLuc63 (solid symbols) or isotype control IgG1 (open symbols). PBMC effector cells were pre-incubated for 3 days in the presence or absence of with lenalidomide […] (square symbols) or vehicle control (round symbols), followed by HuLuc63-mediated ADCC. […] Similarly, pretreatment of effector cells with lenalidomide enhanced HuLuc63-induced lysis of myeloma cell lines (FIGS. 3A and 3B).

myeloma cell lines = assay: calcein-AM release ADCC assay, myeloma cell lines, effector cells pretreated with lenalidomide; type: cell-based, human
Method: as §1
HuLuc63-mediated lysis of patient myeloma cells by PBMC effector cells from the same patient was measured using an ADCC assay. […]

myeloma cells = conditions: cited from earlier work
OPM2 tumor [2] = assay: OPM2 xenograft mouse model, first experiment; type: in vivo, mice; conditions: HuLuc63 1 mg/kg ip twice weekly, 6 doses; bortezomib 0.75 mg/kg ip twice a week
Method: Six- to eight-week old female IcrTac:ICR-Prkdc^scid mice obtained from Taconic Farms (Germantown, N.Y.) were inoculated with 1×10^7 OPM2 (American Type Culture Collection) cells into the lower right flank. Caliper measurements were performed twice weekly to calculate tumor volume using the following formula: L×W×H/2, where L (length) is the longest side of the tumor in the plane of the animal's back, W (width) is the longest measurement perpendicular to the length and in the same plane and H (height) is taken at the highest point perpendicular to the back of the animal. When tumors reached an average size of about 100 mm^3, animals were randomized into 3 groups of 8-10 mice each and were treated with 1 mg/kg of antibody administered intraperitoneally twice a week for a total of 6 doses. […] Tumor growth was monitored for a period of 1-2 months.

myeloma tumor = conditions: myeloma mouse tumor model; cited from earlier work

CC(C)C[C@H](NC(=O)[C@H](Cc1ccccc1)NC(=O)c1cnccn1)B(O)O [bortezomib, reference compound]
cell-surface expression of MHC class I on myeloma cells (MHC class I): down-modulation | change in CS1 expression pre- or post-treatment (CS1): no significant change | effect of pre-treatment of OPM2 cells on HuLuc63-mediated ADCC (OPM2 myeloma cells): significantly enhanced | anti-tumor activity (OPM2 tumor [1]): significant anti-tumor activity

Nc1cccc2c1CN(C1CCC(=O)NC1=O)C2=O (stereo not shown) [lenalidomide, reference compound]
effect of pre-incubation of PBMC effector cells on HuLuc63-mediated ADCC activity, autologous patient sample (patient MM cells; lenalidomide (0.2 µM) for 3 days before ADCC): significantly increased the ADCC activity | effect of pretreatment of effector cells on HuLuc63-induced lysis of myeloma cell lines (myeloma cell lines): enhanced

B1: HuLuc63: humanized recombinant monoclonal IgG1 antibody directed to human CS1; heavy chain variable region SEQ ID NO: 5, light chain variable region SEQ ID NO: 6 (antibody, listed as Homo saiens, listed as Homo sapiens, V domains shown)
VH: EVQLVESGGGLVQPGGSLRLSCAASGFDFSRYWMSWVRQAPGKGLEWIGEINPDSSTINYAPSLKDKFIISRDNAKNSLYLQMNSLRAEDTAVYYCARPDGNYWYFDVWGQGTLVTVSS
VL: DIQMTQSPSSLSASVGDRVTITCKASQDVGIAVAWYQQKPGKVPKLLIYWASTRHTGVPDRFSGSGSGTDFTLTISSLQPEDVATYYCQQYSSYPYTFGQGTKVEIK
lysis of myeloma cells via ADCC (myeloma cells): effectively mediates lysis | change in CS1 expression pre- or post-treatment (CS1): no significant change | autologous myeloma cell lysis (ADCC) (patient MM cells; patient MM cells with effector cells from the same patient, 0-10 μg/ml, E:T 20:1): induced significant autologous myeloma cell lysis | autologous tumor cell lysis in patients with MM resistant or refractory to bortezomib and/or 17-AAG (patient MM cells; resistant or refractory patient tumor cells, autologous effector cells): demonstrated | anti-tumor activity (OPM2 tumor [1]): significant anti-tumor activity | anti-tumor activity (OPM2 tumor [2]): significant anti-tumor activity | reduction of tumor mass (myeloma tumor): more than 50%
